{"source": "the supplement of paper PMC10567573", "parents": {"B1": {"name": "EPB41L3 (parent)", "chain": "SMQCKVILLDGSEYTCDVEKRSRG"}}}
{"variants_of": "B1", "experiment": "protein stability index of a GFP-peptide fusion (GPS, HEK-293T) (PSI 1-6); higher = more stable", "conditions": "c terminus: a fixed tail appended"}
{"variant": "SMQCKVILLDGREYTCDVEKRSRG", "note": "[S12R]", "protein stability index": 2.99}
{"variant": "SMQCKVILLDGQEYTCDVEKRSRG", "note": "[S12Q]", "protein stability index": 2.92}
{"variant": "SMQCKVILLDGNEYTCDVEKRSRG", "note": "[S12N]", "protein stability index": 2.91}
{"variant": "SMQCKVILLDGWEYTCDVEKRSRG", "note": "[S12W]", "protein stability index": 1.94}
{"variant": "SMQCKVILLDGEEYTCDVEKRSRG", "note": "[S12E]", "protein stability index": 4.38}
{"variant": "SMQCKVILLDGAEYTCDVEKRSRG", "note": "[S12A]", "protein stability index": 3.39}
{"variant": "SMQCKVILLDGDEYTCDVEKRSRG", "note": "[S12D]", "protein stability index": 3.08}
{"variant": "SMQCKVILLDGMEYTCDVEKRSRG", "note": "[S12M]", "protein stability index": 1.98}
{"variant": "SMQCKVILLDGCEYTCDVEKRSRG", "note": "[S12C]", "protein stability index": 2.14}
{"variant": "SMQCKVILLDGHEYTCDVEKRSRG", "note": "[S12H]", "protein stability index": 2.34}
{"variant": "SMQCKVQLLDGSEYTCDVEKRSRG", "note": "[I7Q]", "protein stability index": 3.13}
{"variant": "SMQCKVNLLDGSEYTCDVEKRSRG", "note": "[I7N]", "protein stability index": 3.43}
{"variant": "SMQCKVRLLDGSEYTCDVEKRSRG", "note": "[I7R]", "protein stability index": 3.45}
{"variant": "SMQCKVLLLDGSEYTCDVEKRSRG", "note": "[I7L]", "protein stability index": 2.63}
{"variant": "SMQCKVTLLDGSEYTCDVEKRSRG", "note": "[I7T]", "protein stability index": 3.64}
{"variant": "SMQCKVFLLDGSEYTCDVEKRSRG", "note": "[I7F]", "protein stability index": 2.39}
{"variant": "SMQCKVYLLDGSEYTCDVEKRSRG", "note": "[I7Y]", "protein stability index": 2.15}
{"variant": "SMQCKVHLLDGSEYTCDVEKRSRG", "note": "[I7H]", "protein stability index": 3.03}
{"variant": "SMQCKVSLLDGSEYTCDVEKRSRG", "note": "[I7S]", "protein stability index": 3.91}
{"variant": "SMQCKVDLLDGSEYTCDVEKRSRG", "note": "[I7D]", "protein stability index": 4.08}
{"variant": "SMQCKVALLDGSEYTCDVEKRSRG", "note": "[I7A]", "protein stability index": 3.03}
{"variant": "SMQCKVWLLDGSEYTCDVEKRSRG", "note": "[I7W]", "protein stability index": 3.62}
{"variant": "SMQCKVILLDPSEYTCDVEKRSRG", "note": "[G11P]", "protein stability index": 3.22}
{"variant": "SMQCKVILLDTSEYTCDVEKRSRG", "note": "[G11T]", "protein stability index": 2.76}
{"variant": "SMQCKVILLDASEYTCDVEKRSRG", "note": "[G11A]", "protein stability index": 2.58}
{"variant": "SMQCKVILLDDSEYTCDVEKRSRG", "note": "[G11D]", "protein stability index": 2.98}
{"variant": "SMQCKVILLDVSEYTCDVEKRSRG", "note": "[G11V]", "protein stability index": 2.64}
{"variant": "SMQCKVILLDMSEYTCDVEKRSRG", "note": "[G11M]", "protein stability index": 1.73}
{"variant": "SMQCKVILLDESEYTCDVEKRSRG", "note": "[G11E]", "protein stability index": 2.03}
{"variant": "SMQCKVILLDLSEYTCDVEKRSRG", "note": "[G11L]", "protein stability index": 2.75}
{"variant": "SMQCKVILLDCSEYTCDVEKRSRG", "note": "[G11C]", "protein stability index": 2.41}
{"variant": "SMQCKVILLDYSEYTCDVEKRSRG", "note": "[G11Y]", "protein stability index": 2.51}
{"variant": "SMQCKVILLDQSEYTCDVEKRSRG", "note": "[G11Q]", "protein stability index": 2.87}
{"variant": "SMQCKVILLDWSEYTCDVEKRSRG", "note": "[G11W]", "protein stability index": 1.68}
{"variant": "SMQCKVILLDKSEYTCDVEKRSRG", "note": "[G11K]", "protein stability index": 2.94}
{"variant": "SMQCKVILLDISEYTCDVEKRSRG", "note": "[G11I]", "protein stability index": 1.99}
{"variant": "SMQCKVILLDHSEYTCDVEKRSRG", "note": "[G11H]", "protein stability index": 3.67}
{"variant": "SMQCKVILLDRSEYTCDVEKRSRG", "note": "[G11R]", "protein stability index": 2.64}
{"variant": "SMQCKVILLDNSEYTCDVEKRSRG", "note": "[G11N]", "protein stability index": 3.26}
{"variant": "SMQMKVILLDGSEYTCDVEKRSRG", "note": "[C4M]", "protein stability index": 2.6}
{"variant": "SMQHKVILLDGSEYTCDVEKRSRG", "note": "[C4H]", "protein stability index": 3.46}
{"variant": "SMQGKVILLDGSEYTCDVEKRSRG", "note": "[C4G]", "protein stability index": 4.33}
{"variant": "SMQTKVILLDGSEYTCDVEKRSRG", "note": "[C4T]", "protein stability index": 3.61}
{"variant": "SMQVKVILLDGSEYTCDVEKRSRG", "note": "[C4V]", "protein stability index": 3.17}
{"variant": "SMQFKVILLDGSEYTCDVEKRSRG", "note": "[C4F]", "protein stability index": 2.03}
{"variant": "SMQWKVILLDGSEYTCDVEKRSRG", "note": "[C4W]", "protein stability index": 2.32}
{"variant": "SMQRKVILLDGSEYTCDVEKRSRG", "note": "[C4R]", "protein stability index": 4.51}
{"variant": "SMQPKVILLDGSEYTCDVEKRSRG", "note": "[C4P]", "protein stability index": 3.94}
{"variant": "SMQSKVILLDGSEYTCDVEKRSRG", "note": "[C4S]", "protein stability index": 3.78}
{"variant": "SMQYKVILLDGSEYTCDVEKRSRG", "note": "[C4Y]", "protein stability index": 2.29}
{"variant": "SMQNKVILLDGSEYTCDVEKRSRG", "note": "[C4N]", "protein stability index": 3.07}
{"variant": "SMQAKVILLDGSEYTCDVEKRSRG", "note": "[C4A]", "protein stability index": 3.93}
{"variant": "SMQIKVILLDGSEYTCDVEKRSRG", "note": "[C4I]", "protein stability index": 2.41}
{"variant": "SMQEKVILLDGSEYTCDVEKRSRG", "note": "[C4E]", "protein stability index": 4.48}
{"variant": "SMQDKVILLDGSEYTCDVEKRSRG", "note": "[C4D]", "protein stability index": 4.23}
{"variant": "SMQKKVILLDGSEYTCDVEKRSRG", "note": "[C4K]", "protein stability index": 4.37}
{"variant": "SMQQKVILLDGSEYTCDVEKRSRG", "note": "[C4Q]", "protein stability index": 4.28}
{"variant": "SMQLKVILLDGSEYTCDVEKRSRG", "note": "[C4L]", "protein stability index": 2.04}
{"variant": "SMQCKVILLLGSEYTCDVEKRSRG", "note": "[D10L]", "protein stability index": 1.67}
{"variant": "SMQCKVILLNGSEYTCDVEKRSRG", "note": "[D10N]", "protein stability index": 1.89}
{"variant": "SMQCKVILLWGSEYTCDVEKRSRG", "note": "[D10W]", "protein stability index": 1.09}
{"variant": "SMQCKVILLQGSEYTCDVEKRSRG", "note": "[D10Q]", "protein stability index": 2.41}
{"variant": "SMQCKVILLMGSEYTCDVEKRSRG", "note": "[D10M]", "protein stability index": 1.5}
{"variant": "SMQCKVILLPGSEYTCDVEKRSRG", "note": "[D10P]", "protein stability index": 2.66}
{"variant": "SMQCKVILLEGSEYTCDVEKRSRG", "note": "[D10E]", "protein stability index": 2.24}
{"variant": "SMQCKVILLYGSEYTCDVEKRSRG", "note": "[D10Y]", "protein stability index": 1.77}
{"variant": "SMQCKVILLFGSEYTCDVEKRSRG", "note": "[D10F]", "protein stability index": 2.14}
{"variant": "SMQCKVILLVGSEYTCDVEKRSRG", "note": "[D10V]", "protein stability index": 1.62}
{"variant": "SMQCKVILLSGSEYTCDVEKRSRG", "note": "[D10S]", "protein stability index": 2.04}
{"variant": "SMQCKVILLAGSEYTCDVEKRSRG", "note": "[D10A]", "protein stability index": 2.07}
{"variant": "SMQCKVILLGGSEYTCDVEKRSRG", "note": "[D10G]", "protein stability index": 2.14}
{"variant": "SMQCKVILLRGSEYTCDVEKRSRG", "note": "[D10R]", "protein stability index": 2.03}
{"variant": "SMQCKVILLKGSEYTCDVEKRSRG", "note": "[D10K]", "protein stability index": 3.15}
{"variant": "SMQCKVILLHGSEYTCDVEKRSRG", "note": "[D10H]", "protein stability index": 1.5}
{"variant": "SMQCKVILLTGSEYTCDVEKRSRG", "note": "[D10T]", "protein stability index": 2.75}
{"variant": "SMLCKVILLDGSEYTCDVEKRSRG", "note": "[Q3L]", "protein stability index": 1.49}
{"variant": "SMVCKVILLDGSEYTCDVEKRSRG", "note": "[Q3V]", "protein stability index": 2.63}
{"variant": "SMGCKVILLDGSEYTCDVEKRSRG", "note": "[Q3G]", "protein stability index": 2.38}
{"variant": "SMYCKVILLDGSEYTCDVEKRSRG", "note": "[Q3Y]", "protein stability index": 2.07}
{"variant": "SMTCKVILLDGSEYTCDVEKRSRG", "note": "[Q3T]", "protein stability index": 2.48}
{"variant": "SMSCKVILLDGSEYTCDVEKRSRG", "note": "[Q3S]", "protein stability index": 2.98}
{"variant": "SMRCKVILLDGSEYTCDVEKRSRG", "note": "[Q3R]", "protein stability index": 2.37}
{"variant": "SMECKVILLDGSEYTCDVEKRSRG", "note": "[Q3E]", "protein stability index": 3.81}
{"variant": "SMICKVILLDGSEYTCDVEKRSRG", "note": "[Q3I]", "protein stability index": 2.44}
{"variant": "SMFCKVILLDGSEYTCDVEKRSRG", "note": "[Q3F]", "protein stability index": 3.2}
{"variant": "SMMCKVILLDGSEYTCDVEKRSRG", "note": "[Q3M]", "protein stability index": 3.35}
{"variant": "SMACKVILLDGSEYTCDVEKRSRG", "note": "[Q3A]", "protein stability index": 2.9}
{"variant": "SMWCKVILLDGSEYTCDVEKRSRG", "note": "[Q3W]", "protein stability index": 1.19}
{"variant": "SMCCKVILLDGSEYTCDVEKRSRG", "note": "[Q3C]", "protein stability index": 2.16}
{"variant": "SMHCKVILLDGSEYTCDVEKRSRG", "note": "[Q3H]", "protein stability index": 2.83}
{"variant": "SMNCKVILLDGSEYTCDVEKRSRG", "note": "[Q3N]", "protein stability index": 2.76}
{"variant": "SMPCKVILLDGSEYTCDVEKRSRG", "note": "[Q3P]", "protein stability index": 3.63}
{"variant": "SMKCKVILLDGSEYTCDVEKRSRG", "note": "[Q3K]", "protein stability index": 2.68}
{"variant": "SMDCKVILLDGSEYTCDVEKRSRG", "note": "[Q3D]", "protein stability index": 3.75}
